Data reported in patent publication US11999794B2, “Human mesothelin chimeric antigen receptors and uses thereof” (Novartis AG, priority 2013, dated 2024).

Key:
[1] = molecular target: T1, biotinylated mesothelin ECD (Homo sapiens, UniProt Q13421); experiment: Surface plasmon resonance (Biacore T200) binding affinity of purified scFvs; settings: for Kd: 1:1 Binding or Steady State Affinity fit
T1 construct: made in house; host or cells: HEK293F (transient)
Procedure: Binding affinity of purified scFvs was measured on a Biacore T200 system. Briefly, recombinant human biotinylated mesothelin ECD was immobilized on a streptavidin (SA) sensor chip surface at a density of 150 RU. Purified scFv was injected over the chip under constant flow rate at three-fold serial dilutions. Association and dissociation rates of the protein complex were monitored for 270 seconds and 400 seconds, respectively. Double referencing was performed against a blank immobilized flow cell and a buffer blank. Affinity was determined with a Langmuir 1:1 binding model when possible, for those scFVs where accurate fitting was not possible due to fast on and off rates, the steady state model was used.

Ovcar8 [2] = experiment: OVCAR8 subcutaneous xenograft, single and double dose (Example 17); assay type: in vivo, NSG mice; settings: for tumor growth / anti-tumor activity, single dose: 4×10^6 CAR+ T cells on day 14; for tumor growth / anti-tumor activity, double dose: 4×10^6 CAR+ T cells on days 14 and 19; for delta T/C value: day 52, versus Isotype group, single dose; for regression value / Regression (%) / Delta T/C (%): day 52; for Regression (%): double dose (second identical dose 5 days later); for Delta T/C (%): single dose of 4×10^6 CAR T cells i.v. on day 14, versus the Isotype group
Procedure: Cell line: OVCAR8 is a human ovarian cancer cell line that was derived from a patient with ovarian adenocarcinoma, and has been transduced to express mCherry. Cells were grown in RMPI medium containing 10% fetal bovine serum. This cell line grows adherent in tissue culture flasks. This cell line forms tumors in mice when implanted subcutaneously in the flank and mixed with matrigel. The addition of matrigel to the cells during the implantation allow for a matrix to develop in the flank of the mouse that provides a structure for the tumor cells to start growing on. Over 10-12 days, the matrigel plug degrades and the solid tumor that remains is made up of tumor cells and surrounding stromal cells. The OVCAR8 cells have been modified to express mCherry, so that that tumor cell growth can also be monitored by imaging the mice.
Mice: 6 week old NSG (NOD.Cg-Prkdc^scidIl2rg^tm1Wjl/SzJ) mice were received from the Jackson Laboratory (stock number 005557). Animals were allowed to acclimate in the Novartis NIBRI animal facility for at least 3 days prior to experimentation. Animals were handled in accordance with Novartis ACUC regulations and guidelines. Electronic transponders for animal identification were implanted on the left flank one day prior to tumor implantation. Mice were shaved on the right flank prior to tumor implantation.
Tumor implantation: OVCAR8 cells in log phase were harvested after tyrpsinization with 0.25% trypsin-EDTA. The cells were washed in 50 ml falcon tubes at 1200 rpm for 5 minutes, once in growth media and then two times in cold sterile PBS. The cells were resuspended in PBS at a concentration of 100×10^6 per ml and kept on ice. The PBS solution containing the cells was then mixed 1:1 with matrigel, resulting in a final concentration of 50×10^6 cells per ml of PBS-matrigel. The cells were placed on ice and immediately implanted in mice. Tumors were implanted subcutaneously in 200 ul on the right flank.
The OVCAR8 model endogenously expresses mesothelin and thus, can be used to test the in vivo efficacy of mesothelin directed CAR T cells. This model grows well when implanted subcutaneously in the flank of mice and can be calipered for tumor volume measurements. Upon implantation of 10×10^6 tumor cells in a 50:50 mix of PBS and matrigel, the tumors establish and can be accurately measured in one week. Within 13-15 days, the mean tumor volume is 100-200 mm^3, with tumors reaching an endpoint volume (1000-1200 mm^3) by 60-65 days. Anti-tumor activities of therapeutic agents are often tested once tumors are fully engrafted and matrigel resorbed. Thus, there is a large window with this model during which the anti-tumor activity of the CAR T cells can be observed.
CAR T cell dosing: Mice were dosed with 4×10^6 CART cells (13.3×10^6 total T cells) 14 days after tumor implantation. Cells were partially thawed in a 37 degree Celsius water bath and then completely thawed by the addition of 1 ml of cold sterile PBS to the tube containing the cells. The thawed cells were transferred to a 15 ml falcon tube and adjusted to a final volume of 10 mls with PBS. The cells were washed twice at 1000 rpm for 10 minutes each time and then counted on a hemocytometer. T cells were then resuspended at a concentration of 133×10^6 cells per ml of cold PBS and kept on ice until the mice were dosed. The mice were injected intravenously via the tail vein with 100 ul of the T cells for a dose of 4×10^6 CAR T cells (13.3×10^6 total T cells) per mouse. Seven mice per group were either treated with 100 ul of PBS alone (PBS) or T cells transduced with an isotype CAR (Isotype). 14 mice per group were treated with either the SS1 mesothelin CAR T cells, M5 mesothelin CAR T cells, or M11 mesothelin CART cells. Five days later the SS1, M5, and M11 groups were split in half and seven mice in each group were treated with an identical second dose of the CAR T cells. […]

Ovcar8 [3] = experiment: Ovcar8 xenograft model (Example 8); assay type: in vivo, NSG mice; settings: 2×10^6 CART cells i.v. at day 14
Procedure: Anti-tumor activity of CART-MSLN was assessed in vivo in an Ovcar8 xenograft model. 10×10^6 Ovcar8 cells were implanted subcutaneously on day 0 in NSG mice. At day 14, 2×10^6 CART cells (CARTs expressing M5, M11, M17, M21, SS1, and CD19, or untransduced cells; 10×10^6 total T cells) in a 100 μl dose was administered intravenously. Mice and tumors were monitored for about 40 days after tumor cell implantation.
A second in vivo xenograft experiment was performed to assess the anti-tumor activity of a second set of CART-MSLN cells. 10×10^6 OVCAR8-mcherry cells were injected into NSG mice. Once tumors were 150-250 mm^2, mice were randomized into treatment groups. CARTs expressing M12, M14, M16, M23, ss1, CD19, or untreated cells were injected at a dose of 10×10^6 T cells in 100 μl. About 40% of T cells were expressing CAR, and therefore at the administered dosage, about 4×10^6 CART cells were delivered to each animal.

T1 sequence (Q13421 with tags, fused parts or gaps): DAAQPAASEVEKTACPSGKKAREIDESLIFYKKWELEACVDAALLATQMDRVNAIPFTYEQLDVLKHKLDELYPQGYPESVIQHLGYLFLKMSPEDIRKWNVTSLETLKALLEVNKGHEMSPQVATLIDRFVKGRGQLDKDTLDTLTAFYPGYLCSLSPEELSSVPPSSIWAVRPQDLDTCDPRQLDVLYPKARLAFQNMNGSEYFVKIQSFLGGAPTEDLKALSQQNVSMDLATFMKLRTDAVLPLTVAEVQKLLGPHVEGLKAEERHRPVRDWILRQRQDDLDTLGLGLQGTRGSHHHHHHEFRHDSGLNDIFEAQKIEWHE

| Molecule | ka ([1]; 1:1 Binding fit) [M⁻¹ s⁻¹] | kd ([1]; 1:1 Binding fit) [s⁻¹] | Kd [1] [nM] | tumor growth / anti-tumor activity, single dose (Ovcar8 [2]) | tumor growth / anti-tumor activity, double dose (Ovcar8 [2]) | delta T/C value (Ovcar8 [2]) [%] | regression value (Ovcar8 [2]; double dose) [%] | mice with complete regression (Ovcar8 [2]; double dose) | Regression (%) (Ovcar8 [2]) | Delta T/C (%) (Ovcar8 [2]) | anti-tumor activity, first xenograft experiment (Ovcar8 [3]) |
| --- | --- | --- | --- | --- | --- | --- | --- | --- | --- | --- | --- |
| M5: human anti-mesothelin scFv SEQ ID NO: 43; full CAR SEQ ID NO: 67 (protein) scFv: QVQLVQSGAEVEKPGASVKVSCKASGYTFTDYYMHWVRQAPGQGLEWMGWINPNSGGTNYAQKFQGRVTMTRDTSISTAYMELSRLRSDDTAVYYCASGWDFDYWGQGTLVTVSSGGGGSGGGGSGGGGSGGGGSDIVMTQSPSSLSASVGDRVTITCRASQSIRYYLSWYQQKPGKAPKLLIYTASILQNGVPSRFSGSGSGTDFTLTISSLQPEDFATYYCLQTYTTPDFGPGTKVEIK | 42000 | 0.00113 | 26.9 | clear anti-tumor activity | regression as opposed to tumor growth inhibition | 30.28 | −63.90 | four out of seven mice | −63.90 | 30.28 | strong anti-tumor activity |
| M11: human anti-mesothelin scFv SEQ ID NO: 49; full CAR SEQ ID NO: 73 (protein) scFv: QVQLQQSGAEVKKPGASVKVSCKASGYTFTGYYMHWVRQAPGQGLEWMGWINPNSGGTNYAQNFQGRVTMTRDTSISTAYMELRRLRSDDTAVYYCASGWDFDYWGQGTLVTVSSGGGGSGGGGSGGGGSGGGGSDIRMTQSPSSLSASVGDRVTITCRASQSIRYYLSWYQQKPGKAPKLLIYTASILQNGVPSRFSGSGSGTDFTLTISSLQPEDFATYYCLQTYTTPDFGPGTKVEIK |  |  | 64.7 | clear anti-tumor activity | regression as opposed to tumor growth inhibition | 52.91 | −15.80 |  | −15.80 | 52.91 | strong anti-tumor activity |
